This is an account of results in the DeepSol protein solubility set.

This series is described as follows: soluble on expression in E. coli; label from the status in PepcDB or PDB records.
With “MIKTDLNDFAWFVHVVEEGGFAAAGRALDEPKSKLSRRIAQLEERLGVRLIQRTTRQFNVTEVGQTFYEHCKAMLVEAQAAQDAIAALQVEPRGIVKLTCPVTLLHVHIGPMLAKFMARYPDVSLQLEATNRRVDVVGEGVDVAIRVRPRPFEDSDLVMRVLADRGHRLFASPDLIARMGIPSAPAELSHWPGLSLASGKHIHRWELYGPQGARAEVHFTPRMITTDMLALREAAMAGVGLVQLPVLMVKEQLAAGELVAVLEEWEPRREVIHAVFPSRRGLLPSVRALVDFLTEEYARMVEE”, the “soluble on expression in E. coli” value was “not soluble”. The same measure for “MIKVDQHYFELIENYRECFNEEQFIARYSDILDKYDYIVGDYGYDQLRLKGFYKDSNKKAEMSKRFSNIQDYIFEYCNFGCPYFVLRHLSKQEVKKLIEEVHPSDVIDDDNKLQDVKIKPTIQDTEHLEHHHHHH”: “not soluble”; for “MILDADIKTQLSQYLQLMENDILLKVSAGNDDVSKDMLALVDELATMSSKITVEKVELERTPSFSVNRPGEDTGVVFAGIPLGHEFTSLVLALLQVSGRAPKVEQKLIDQIKNIQGEYHFESYISLSCHNCPDVVQALNVMSVLNSGITHTMIDGAAFKEEVESKDIMAVPTVFLNGESFGSGRMTLEEILAKMGNGPDASELSDKDPYDVLVVGGGPAGASAAIYAARKGIRTGIVAERFGGQVMDTMGIENFISVKRTEGPKLVASLEEHVKEYDIDVMNLQRAKRLEKKELIEVELENGAILKSKSVIVSTGARWRNVGVPGEAEFKNKGVAYCPHCDGPLFTGKDVAVIGGGNSGIEAAIDLAGIVKHVTVLEFMPELKADAVLQERLNSLPNVTVLKNVQTKEITGTDKVNGISYIDRETEEVHHVELQGVFVQIGLVPNTDWLGETVERVRGEIVTDKHGATNVPGVFAAGDCTNNPYKQIIISMGSGANAALGAFDYLIRN”: “not soluble”; for “MILIGDSGSTKTDWCIAKEGKSLGRFQTSGINPFQQDRNEIDTALRSEVLPAIGQKASSIRAVYFYGAGCTPAKAPMLNEALDSMLPHCDRIEVAGDMLGAARALCGDSEGIACILGTGSNSCLFDGREIKANVSPLGYILGDEGSGAVLGRLFIGSLLKGQMPEGLCEAFLQEYGLTSADIIESVYRKPFPNRFLAGFSPFIAQHLDIPAVYSLVQNSFDDFLVRNVLRYNRPDLPLHFIGSVAFHYREVLSSVIKKRGLTLGSVLQSPMEGLIQYHHNNHVLEHHHHHH”: “soluble”.

“MILKLKYYREAMNLTQEELARHAKVSVAMVQSMENGRRKGSTDTILKLSDALNVTVDDLLRGNNMTISHKKETSK”: the “soluble on expression in E. coli” value is listed as “not soluble”. The same measure for “MILRASVLSALLLVGLGAAPKHSVSANDKRMQDNLVSVIEKQTNKKVRILEIKPLKSSQDLKMVVIEDPDTKYNIPLVVSKDGNLIIGLSNIFFSNKSDDVQLVAETNQKVQALNATQQNSAKLNAIFNEIPADYAIELPSTNAANKDKILYIVSDPMCPHCQKELTKLRDHLKENTVRMVVVGWLGVNSAKKAALIQEEMAKARARGASVEDKISILEKIYSTQYDINAQKEPEDLRTKVENTTKKIFESGVIKGVPFLYHYKA”: “not soluble”; for “MILTPPDTPFFLRNGNADTIAAKFLQRPAPAYRRELLPDSTGKTKVAYDFSDGISPDAPLVVLFHGLEGSSRSHYAVELMLAVRDRGWHGVVVHFRSCGGIANTAPVFYHLGDTAEIAFTLDTFAARYREIYAVGVSLGGNALAKYLGEQGKKALPQAAAVISAPVDAEAAGRRFDSGITRLLYTRYFLRTLIPKAKSLQGFQTAFAAGCKTLGEFDDRFTAPLHGFADRHDYYRQTSCKPLLKHVAKPLLLLNAVNDPFLPPEALPRADEVSEAVTLFQPAYGGHVGFVSSTGGRLHLQWLPQTVLSYFDSFRTNRR”: “not soluble”.

Regarding “MILVTGGARSGKSRHAEALIGDAPQVLYIATSQILDDEMAARIQHHKDGRPAHWRTAECWRHLDTLITADLAPDDAILLECITTMVTNLLFALGGENDPEQWDYAAMERAIDDEIQILIAACQRCPAKVVLVTNEVGMGIVPENRLARHFRDIAGRVNQRLAAAADEVWLVVSGIGVKIK”, the “soluble on expression in E. coli” value is “soluble”. The same measure for “MINDDILAHARQCAPAESCGYVVRTAQGERYFPCENLSAEPTMYFRISPEDYLNARNRGDIVALVHSHPDGKPCLSSADRTLQIQSGLDWWLVCDNRIHKFRCVPHLTGRQFEHGVTDCYTLFRDAYHLAGIDMPDFDREDDWWSQGKSLYLDHLEAAGFYRVNPEDAQPGDVLICCFGSPTPNHAAIYCGNGELLHHIPEQLSKREGYNDKWQRRTHSIWRHRQWCESAFTGIYNDLESASASA”: “not soluble”; for “MINFEATELRLGLPGGNHGGEMAGKNNGKRGFSETVDLKLNLSSTAMDSVSKVDLENMKEKVVKPPAKAQVVGWPPVRSFRKNVMSGQKPTTGDATEGNDKTSGSSGATSSASACATVAYVKVSMDGAPYLRKIDLKLYKTYQDLSNALSKMFSSFTIGNYGPQGMKDFMNESKLIDLLNGSDYVPTYEDKDGDWMLVGDVPWEMFVDSCKRIRIMKGSEAIGLAPRALEKCKNRS”: “soluble”; for “MINIHRFVQNRFLRTRHAHPFGIVLDIDGVLFRGRNMLPRVKEAFSLITDKKGNFVVPTVFLTNGTNSTEKNKAAQLSEQLGFRVPADNVLMSHSPLRMFTDLHDKQVLVVGQKNARAIAKGIIFFRVGFKKVTTIDHLVKWFPHLDCTDFSRKLVDPKETEAARKRFRPIEAIVMLGEPLKWETSLQLMLDCVLTYGKMDTMVFPLIAGGRRPDHIPIVACNVDLVWMADVASQLPRIGHGTFIHILDSLYEKLTGQHLQFRATLGKPTEVSYLHAAHRIQRQAKAMKLEDVKYVYVIGDNPMSDVLGARLFDRYLRHGGVGRFDHLDLEAFDVNDGEKPRVRTRNVVERCISILVETGVHQDHVHINGMVKPISALIDNLSKGEQLKLQLPDFVEYDLHAAIRTILRRECYR”: “not soluble”. As to “MINQDFILSQVVGGSLDAVAREMSATVTRTARSPLFNEAHDFTTGVFDLSGKKSRLVAQAPGCTLHLYAVVGAVDHLLDAFRYDLHPGDILLVNDPYHGGSHSLDWTIVMPVFYNRKPILLPAVRSHMADNGGPVAGGYNPRSKDIWHDGLRIPPLKIYERGEKRRDVFDLIVANNRLSHWLEGDLNAMIGACKVAASRIQTMLDKYGAEKVITAIDNRIQYTENRVRDEISSWPDGTYVGETFADHDFQGNRDIKVRATVTVKGSDLHIDFTGSSPQVKGFINSPLSNTTSFAFVGISTCCDEDIPINEGYMNPVTVTAPIGTVVNPQLPAPCGHATACVGAEIAEAVLQAISQCAPKRVGVNAHKLPLAYSHGKYDDGKPWVNLNFYGYTGGAGAAYETDGWGLYPPVMTGVILPSIEMTEVQYPSRVLKHEYTSDFTGAGRWRGTPGLDVQIQHLKESRTSVMMAGGRNTTKGFCGAGDSPSNKVIVGYGTDEAREIDETAFEVKMPVGGIIQFYRAGGGGWGNPLEREPEKVLDD”, the “soluble on expression in E. coli” value is reported as “not soluble”. “MIPLEKPGSGGSSPGATSGSGRAGRGLSGPCRPPPPPQARGLLTEIRAVVRTEPFQDGYSLCPGRELGRGKFAVVRKCIKKDSGKEFAAKFMRKRRKGQDCRMEIIHEIAVLELAQDNPWVINLHEVYETASEMILVLEYAAGGEIFDQCVADREEAFKEKDVQRLMRQILEGVHFLHTRDVVHLDLKPQNILLTSESPLGDIKIVDFGLSRILKNSEELREIMGTPEYVAPEILSYDPISMATDMWSIGVLTYVMLTGISPFLGNDKQETFLNISQMNLSYSEEEFDVLSESAVDFIRTLLVKKPEDRATAEECLKHPWLTQSSIQEPSFRMEKALEEANALQEGHSVPEINSDTDKSETEESIVTEELIVVTSYTLGQCRQSEKEKMEQKAISKRFKFEEPLLQEIPGEFIY”: the “soluble on expression in E. coli” value is “soluble”.

As for “MIPRKEMAAVSTEMTMAEMLEVMLKEKYTRWPVTDGDKDSVLGLVNTKHLFSDLLFMTEEERMKMTIHPYVRPVIEVIETIPVHDLLIKMQRERIHMAILSDEYGGTSGLVTTEDILEEIVGEIR”, the “soluble on expression in E. coli” value is “not soluble”.

For “MIPVERHQQILALIAERGAVSINELTERLGVSHMTVRRDVQKLEQDGLLLSVSGGVRSPERLATEPSHQDKSVMFSQQKAAMGKLAAQHIPLNSCIYLDAGTTTLSLARELAERDDLLIVTNDFAIAAFLIESSQCRMIHTGGTLCRENQSCIGEAVAQALRNLFIDIAFISASSWSLRGLSTPNEDKVVVKRAAVEASRKRVLLCDTSKYGRIATHLATPLDVFDSIITDDGLPVAAKEALSKMGVEVLVAG”, the “soluble on expression in E. coli” value was “not soluble”. The value for “MIQDTRPLIRVVAGILLDSDGNYLLSSRPEGKPYAGYWEFAGGKVEAGETDFQALQREFEEELGIRILAATPWLTKIHSYEHARVCLKFLWVNPDQWTGKPQSREGQEWSWQKAGDFTVAPMLPANGALLRSLSVPRRLYGSLKTGLHGENSMGAYRVLPLGSAEGSGANVLMEAAQWQDRPEHADSVWMVVQTREQWRRAQEKGADAVVWRVCDDVQAQEAAEALRQGVSVPLVLAANGQTVARYGKLWLGLGAHVVVRDETIGKNHE” was “not soluble”; that for “MIQIEQIRTGVIQENCYLVYNEEALLIIDPGAEGAKLIQEITRLGKKPAAILLTHTHYDHIGAVEELRHHYQIPVYVSPLEQAWLSNPILNLSGLGRHDDIANIIVQPAEHEFKLTDYEIGGMKFSVVPTPGHSIGSVSFVFDDFVVVGDALFKGSIGRTDLHTGDMQQLLHSITTYLFTLPEEFPVYPGHGDATTIQHEKATNPFFN” was “not soluble”; that for “MIQYYYTKKEWGVVMEKEELKILEELRRILSNKNEAIVILNNYFKGGVGKSKLSTMFAYLTDKLNLKVLMIDKDLQATLTKDLAKTFKVELPRVNFYEGLKNGNLASSIVHLTDNLDLIPGTFDLMLLPKLTRSWTFENESRLLATLLAPLKSDYDLIIIDTVPTPSVYTNNAIVASDYVMIPLQAEEESTNNIQNYISYLIDLQEQFNPGLDMIGFVPYLVDTDSATIKSNLEELYKQHKEDNLVFQNIIKRSNKVSTWSKNGITEHKGYDKKVLSMYKNVFFEMLERIIQLENEKE” was “soluble”. The same measure for “MIRIGHGFDVHRFGGEGPIIIGGVKIPYEQGLIAHSDGDVALHALSDALLGAIAAGDIGRHFPDTDDKWKGADSRELLKDVYRRVKAQGYVLGNADVTIIAQAPKMAPYIQAMCAAIAEDLETDLGNINVKATTTEKLGFTGRKEGIACEAVVLLRKA”: “not soluble”; for “MIRLQKFKQLTVWVMLGLLTSWIVSCSTDNVGTISKPVTSEVTKIEFWTMQLQPQFTNYFQSLITSFESQNPSIKVKWVDVPWSAMENKILTAVSAKTPPDVVNLNPDFASQLAGRNAWLDLDEKVPSEVSSSYLPNIWQASTLNGKTFGIPWYLTTRLTIYNTDLLKQAGITKPPATYTELAQEAQQIKDKTGKYAFFATFVPQDSGEVLESFVQMGVTLVNAEGKAAFNSPQGKAAFQYWVYLYKKGLLPKESLTQGHRHAIDLYQSGETAFLASGPEFLETISNNAPKISQASAIAPQITGDTGKKNVAVMNIVIPRASKQPDAAVKFALFVTNDENQLAFAKAANVLPSTVTALADSYFKEVPATATIAEKGRIISAQQMQTAEVLTPKMKDFKFLQKAIYENLQAAMLGQKTVDKALEDAAQQWNNR”: “not soluble”.
